Source: patent US20200339636A1 (CHILDREN S MEDICAL CENTER, published 2020)

B2: sTcdB (TcdB residues 1285-1804), wild type, with C-terminal HA tag (other)
chain: TNIRINLDSNTRSFIVPIITTEYIREKLSYSFYGSGGTYALSLSQYNMGINIELSESDVWIIDVDNVVRDVTIESDKIKKGDLIEGILSTLSIEENKIILNSHEINFSGEVNGSNGFVSLTFSILEGINAIIEVDLLSKSYKLLISGELKILMLNSNHIQQKIDYIGFNSELQKNIPYSFVDSEGKENGFINGSTKEGLFVSELPDVVLISKVYMDDSKPSFGYYSNNLKDVKVITKDNVNILTGYYLKDDIKISLSLTLQDEKTIKLNSVHLDESGVAEILKFMNRKGNTNTSDSLMSFLESMNIKSIFVNFLQSNIKFILDANFIISGTTSIGQFEFICDENDNIQPYFIKFNTLETNYTLYVGNRQNMIVEPNYDLDDSGDISSTVINFSQKYLYGIDSCVNKVVISPNIYTDEINITPVYETNNTYPEVIVLDANYINEKINVNINDLSIRYVWSNDGNDFILMSTSEENKVSQVKIRFVNVFKDKTLANKLSFNFSDKQDVPVSEIILSFTPSYY

Tests used:
[1] = target: T1, His-tagged CRD2 (CRD of human Frizzled 2, residues 24-156) (human, UniProt Q14332 24-156); assay: pull down by His-CRD2
T1 construct: range 24-156

[2] = target: T2, FZD2^CRD-Fc (recombinant human, R&D Systems) (human, UniProt Q14332 24-162); assay: BLI (Blitz), FZD2CRD-Fc on anti-hIgG-Fc biosensor
T2 construct: domain: CRD; also called Fc-tagged CRD2; CRD2; not shown: Fc tag of the bought protein

[3] = target: T2, FZD2^CRD-Fc (recombinant human, R&D …)
[4] = target: T2, FZD2^CRD-Fc (recombinant human, R&D …); assay: BLI, FZD2 CRD-Fc on anti-hIgG-Fc biosensor
[5] = target: T2, FZD2^CRD-Fc (recombinant human, R&D …); assay: BLI (Blitz), FZD2CRD-Fc on anti-hIgG-Fc biosensor; kon error printed 1.69 x 10^3
[6] = target: T2, FZD2^CRD-Fc (recombinant human, R&D …); assay: BLI, FZD2CRD-Fc (20 µg/ml) on anti-hIgG-Fc biosensor, then 20 µg/ml Wnt3A
[7] = target: B2; assay: BLI, CRD-Fc with or without Wnt3A
[8] = target: Recombinant full length TcdB (C. difficile strain VPI 10463), 6xHis-tagged (Clostridium difficile strain VPI 10463, UniProt P18177 1-2366); assay: BLI, FZD5 CRD-Fc with or without Wnt3A
[9] = target: B2; assay: pull-down on Protein G beads and BLI, FZD5 CRD-Fc with or without PAM or Wnt3A

Sequence of Recombinant full length TcdB (C. difficile strain VPI 10463), 6xHis-tagged (P18177 whole entry): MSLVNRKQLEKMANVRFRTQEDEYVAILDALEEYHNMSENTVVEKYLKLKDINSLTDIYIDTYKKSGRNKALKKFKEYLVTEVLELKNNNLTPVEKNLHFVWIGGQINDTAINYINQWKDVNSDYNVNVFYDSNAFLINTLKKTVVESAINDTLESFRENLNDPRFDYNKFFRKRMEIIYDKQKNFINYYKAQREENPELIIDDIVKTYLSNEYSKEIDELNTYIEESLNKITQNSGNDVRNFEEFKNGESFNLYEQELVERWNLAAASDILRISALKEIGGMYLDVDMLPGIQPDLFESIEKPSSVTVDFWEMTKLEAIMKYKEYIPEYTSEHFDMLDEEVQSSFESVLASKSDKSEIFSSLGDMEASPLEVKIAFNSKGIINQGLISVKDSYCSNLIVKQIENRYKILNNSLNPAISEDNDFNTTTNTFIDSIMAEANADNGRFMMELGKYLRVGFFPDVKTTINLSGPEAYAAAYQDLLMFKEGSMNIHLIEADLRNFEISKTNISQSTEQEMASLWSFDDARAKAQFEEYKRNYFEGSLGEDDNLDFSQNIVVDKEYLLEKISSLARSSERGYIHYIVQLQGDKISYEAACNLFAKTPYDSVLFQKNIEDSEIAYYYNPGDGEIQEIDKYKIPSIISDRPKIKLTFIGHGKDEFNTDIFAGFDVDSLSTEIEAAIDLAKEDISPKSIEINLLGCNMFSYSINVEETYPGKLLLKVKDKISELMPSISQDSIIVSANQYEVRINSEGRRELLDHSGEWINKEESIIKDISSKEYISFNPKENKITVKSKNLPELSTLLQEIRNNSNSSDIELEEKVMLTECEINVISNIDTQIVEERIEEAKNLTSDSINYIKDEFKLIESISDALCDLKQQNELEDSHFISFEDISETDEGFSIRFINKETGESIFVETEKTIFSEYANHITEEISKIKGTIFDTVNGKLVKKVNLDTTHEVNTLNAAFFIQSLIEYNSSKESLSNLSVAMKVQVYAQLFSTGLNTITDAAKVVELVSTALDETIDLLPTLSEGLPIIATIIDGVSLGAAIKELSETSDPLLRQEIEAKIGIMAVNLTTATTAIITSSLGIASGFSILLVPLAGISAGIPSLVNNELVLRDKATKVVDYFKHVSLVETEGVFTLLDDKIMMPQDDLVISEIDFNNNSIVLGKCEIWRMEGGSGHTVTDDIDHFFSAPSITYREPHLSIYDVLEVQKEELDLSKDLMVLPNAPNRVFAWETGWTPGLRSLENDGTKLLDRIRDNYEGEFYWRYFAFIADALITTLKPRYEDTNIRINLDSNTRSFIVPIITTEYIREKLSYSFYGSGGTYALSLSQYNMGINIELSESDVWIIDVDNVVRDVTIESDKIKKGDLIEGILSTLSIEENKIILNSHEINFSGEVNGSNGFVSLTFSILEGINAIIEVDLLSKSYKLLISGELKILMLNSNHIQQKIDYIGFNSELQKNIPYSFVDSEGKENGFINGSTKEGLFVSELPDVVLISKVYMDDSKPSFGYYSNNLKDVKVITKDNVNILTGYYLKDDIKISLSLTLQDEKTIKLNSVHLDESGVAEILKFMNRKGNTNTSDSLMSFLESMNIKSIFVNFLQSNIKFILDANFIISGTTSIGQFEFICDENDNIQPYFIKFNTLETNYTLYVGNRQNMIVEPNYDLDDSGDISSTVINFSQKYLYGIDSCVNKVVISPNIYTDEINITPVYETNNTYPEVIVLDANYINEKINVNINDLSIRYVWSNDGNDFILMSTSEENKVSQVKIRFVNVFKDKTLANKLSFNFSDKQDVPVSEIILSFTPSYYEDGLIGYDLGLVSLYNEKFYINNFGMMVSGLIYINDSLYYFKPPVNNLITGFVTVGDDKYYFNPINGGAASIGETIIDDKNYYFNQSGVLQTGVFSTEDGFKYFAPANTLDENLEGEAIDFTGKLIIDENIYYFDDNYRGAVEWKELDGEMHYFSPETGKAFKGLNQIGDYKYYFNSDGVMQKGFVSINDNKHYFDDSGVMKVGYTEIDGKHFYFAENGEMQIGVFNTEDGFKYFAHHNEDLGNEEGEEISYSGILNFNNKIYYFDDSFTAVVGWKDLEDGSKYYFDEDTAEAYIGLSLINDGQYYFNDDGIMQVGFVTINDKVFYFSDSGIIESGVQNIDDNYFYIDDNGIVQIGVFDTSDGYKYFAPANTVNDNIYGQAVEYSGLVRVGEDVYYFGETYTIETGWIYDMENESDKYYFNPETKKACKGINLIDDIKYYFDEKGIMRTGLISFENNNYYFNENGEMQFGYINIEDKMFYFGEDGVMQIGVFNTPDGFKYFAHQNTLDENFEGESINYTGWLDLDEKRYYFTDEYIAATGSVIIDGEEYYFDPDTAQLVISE

B1: TcdB fragment 1454-1804 (other)
chain: SELQKNIPYSFVDSEGKENGFINGSTKEGLFVSELPDVVLISKVYMDDSKPSFGYYSNNLKDVKVITKDNVNILTGYYLKDDIKISLSLTLQDEKTIKLNSVHLDESGVAEILKFMNRKGNTNTSDSLMSFLESMNIKSIFVNFLQSNIKFILDANFIISGTTSIGQFEFICDENDNIQPYFIKFNTLETNYTLYVGNRQNMIVEPNYDLDDSGDISSTVINFSQKYLYGIDSCVNKVVISPNIYTDEINITPVYETNNTYPEVIVLDANYINEKINVNINDLSIRYVWSNDGNDFILMSTSEENKVSQVKIRFVNVFKDKTLANKLSFNFSDKQDVPVSEIILSFTPSYY
binding result [1]: no binding

B2
Kd [2]: 13 nM | koff [3]: 0.0015 s⁻¹ | Kd [4]: ~13 nM | kon [5]: 114000 M⁻¹ s⁻¹

B3: TcdB fragment 1510-1804 (other)
chain: SNNLKDVKVITKDNVNILTGYYLKDDIKISLSLTLQDEKTIKLNSVHLDESGVAEILKFMNRKGNTNTSDSLMSFLESMNIKSIFVNFLQSNIKFILDANFIISGTTSIGQFEFICDENDNIQPYFIKFNTLETNYTLYVGNRQNMIVEPNYDLDDSGDISSTVINFSQKYLYGIDSCVNKVVISPNIYTDEINITPVYETNNTYPEVIVLDANYINEKINVNINDLSIRYVWSNDGNDFILMSTSEENKVSQVKIRFVNVFKDKTLANKLSFNFSDKQDVPVSEIILSFTPSYY
binding result [1]: no binding

B4: Wnt3A (recombinant human, StemRD) (ligand)
chain: SYPIWWSLAVGPQYSSLGSQPILCASIPGLVPKQLRFCRNYVEIMPSVAEGIKIGIQECQHQFRGRRWNCTTVHDSLAIFGPVLDKATRESAFVHAIASAGVAFAVTRSCAEGTAAICGCSSRHQGSPGKGWKWGGCSEDIEFGGMVSREFADARENRPDARSAMNRHNNEAGRQAIASHMHLKCKCHGLSGSCEVKTCWWSQPDFRAIGDFLKDKYDSASEMVVEKHRESRGWVETLRPRYTYFKVPTERDLVYYEASPNFCEPNPETGSFGTRDRTCNVSSHGIDGCDLLCCGRGHNARAERRREKCRCVFHWCCYVSCQECTRVYDVHTCK
binding result [6]: binds

B5: TcdB fragment 1071-1512 (other)
chain: LTTATTAIITSSLGIASGFSILLVPLAGISAGIPSLVNNELVLRDKATKVVDYFKHVSLVETEGVFTLLDDKIMMPQDDLVISEIDFNNNSIVLGKCEIWRMEGGSGHTVTDDIDHFFSAPSITYREPHLSIYDVLEVQKEELDLSKDLMVLPNAPNRVFAWETGWTPGLRSLENDGTKLLDRIRDNYEGEFYWRYFAFIADALITTLKPRYEDTNIRINLDSNTRSFIVPIITTEYIREKLSYSFYGSGGTYALSLSQYNMGINIELSESDVWIIDVDNVVRDVTIESDKIKKGDLIEGILSTLSIEENKIILNSHEINFSGEVNGSNGFVSLTFSILEGINAIIEVDLLSKSYKLLISGELKILMLNSNHIQQKIDYIGFNSELQKNIPYSFVDSEGKENGFINGSTKEGLFVSELPDVVLISKVYMDDSKPSFGYYSNN
binding result [1]: no binding

B6: FZD4^CRD-Fc (recombinant human, Sino Biologics) (Fc fusion)
chain: FGDEEERRCDPIRISMCQNLGYNVTKMPNLVGHELQTDAELQLTTFTPLIQYGCSSQLQFFLCSVYVPMCTEKINIPIGPCGGMCLSVKRRCEPVLKEFGFAWPESLNCSKFPPQNDHNHMCMEGPGDEEVPLPHKTPIQPGEE
notes: domain: CRD
binding result [7]: binds

B7: TcdB fragment 1688-1835 (other)
chain: VNKVVISPNIYTDEINITPVYETNNTYPEVIVLDANYINEKINVNINDLSIRYVWSNDGNDFILMSTSEENKVSQVKIRFVNVFKDKTLANKLSFNFSDKQDVPVSEIILSFTPSYYEDGLIGYDLGLVSLYNEKFYINNFGMMVSGL
binding result [1]: no binding

B8: TcdB fragment 1510-1688 (other)
chain: SNNLKDVKVITKDNVNILTGYYLKDDIKISLSLTLQDEKTIKLNSVHLDESGVAEILKFMNRKGNTNTSDSLMSFLESMNIKSIFVNFLQSNIKFILDANFIISGTTSIGQFEFICDENDNIQPYFIKFNTLETNYTLYVGNRQNMIVEPNYDLDDSGDISSTVINFSQKYLYGIDSCV
binding result [1]: no binding

B9: TcdB fragment 1430-1804 (other)
chain: SGELKILMLNSNHIQQKIDYIGFNSELQKNIPYSFVDSEGKENGFINGSTKEGLFVSELPDVVLISKVYMDDSKPSFGYYSNNLKDVKVITKDNVNILTGYYLKDDIKISLSLTLQDEKTIKLNSVHLDESGVAEILKFMNRKGNTNTSDSLMSFLESMNIKSIFVNFLQSNIKFILDANFIISGTTSIGQFEFICDENDNIQPYFIKFNTLETNYTLYVGNRQNMIVEPNYDLDDSGDISSTVINFSQKYLYGIDSCVNKVVISPNIYTDEINITPVYETNNTYPEVIVLDANYINEKINVNINDLSIRYVWSNDGNDFILMSTSEENKVSQVKIRFVNVFKDKTLANKLSFNFSDKQDVPVSEIILSFTPSYY
binding result [1]: no binding

B10: FZD5^CRD-Fc (recombinant human, Sino Biologics) (Fc fusion, UniProt Q13467 27-167, looked up)
chain: ASKAPVCQEITVPMCRGIGYNLTHMPNQFNHDTQDEAGLEVHQFWPLVEIQCSPDLRFFLCSMYTPICLPDYHKPLPPCRSVCERAKAGCSPLMRQYGFAWPERMSCDRLPVLGRDAEVLCMDYNRSEATTAPPRPFPAKP
notes: domain: CRD; also called CRD5; CRD5-Fc; not shown: Fc tag of the bought protein
binding result [8]: binds | binding result [9]: binds

B11: FZD8^CRD-Fc (recombinant human, R&D Systems) (Fc fusion)
chain: ASAKELACQEITVPLCKGIGYNYTYMPNQFNHDTQDEAGLEVHQFWPLVEIQCSPDLKFFLCSMYTPICLEDYKKPLPPCRSVCERAKAGCAPLMRQYGFAWPDRMRCDRLPEQGNPDTLCMDYNRTDLTT
notes: domain: CRD
binding result [7]: binds
